From patent publication US20240052042A1 (Novartis, published 2024)
Where a chain is given by its changes, count along the chain named.

T1: human NPR1 on CHO-K1 cells (human, UniProt P16066 33-1061)
T1 sequence: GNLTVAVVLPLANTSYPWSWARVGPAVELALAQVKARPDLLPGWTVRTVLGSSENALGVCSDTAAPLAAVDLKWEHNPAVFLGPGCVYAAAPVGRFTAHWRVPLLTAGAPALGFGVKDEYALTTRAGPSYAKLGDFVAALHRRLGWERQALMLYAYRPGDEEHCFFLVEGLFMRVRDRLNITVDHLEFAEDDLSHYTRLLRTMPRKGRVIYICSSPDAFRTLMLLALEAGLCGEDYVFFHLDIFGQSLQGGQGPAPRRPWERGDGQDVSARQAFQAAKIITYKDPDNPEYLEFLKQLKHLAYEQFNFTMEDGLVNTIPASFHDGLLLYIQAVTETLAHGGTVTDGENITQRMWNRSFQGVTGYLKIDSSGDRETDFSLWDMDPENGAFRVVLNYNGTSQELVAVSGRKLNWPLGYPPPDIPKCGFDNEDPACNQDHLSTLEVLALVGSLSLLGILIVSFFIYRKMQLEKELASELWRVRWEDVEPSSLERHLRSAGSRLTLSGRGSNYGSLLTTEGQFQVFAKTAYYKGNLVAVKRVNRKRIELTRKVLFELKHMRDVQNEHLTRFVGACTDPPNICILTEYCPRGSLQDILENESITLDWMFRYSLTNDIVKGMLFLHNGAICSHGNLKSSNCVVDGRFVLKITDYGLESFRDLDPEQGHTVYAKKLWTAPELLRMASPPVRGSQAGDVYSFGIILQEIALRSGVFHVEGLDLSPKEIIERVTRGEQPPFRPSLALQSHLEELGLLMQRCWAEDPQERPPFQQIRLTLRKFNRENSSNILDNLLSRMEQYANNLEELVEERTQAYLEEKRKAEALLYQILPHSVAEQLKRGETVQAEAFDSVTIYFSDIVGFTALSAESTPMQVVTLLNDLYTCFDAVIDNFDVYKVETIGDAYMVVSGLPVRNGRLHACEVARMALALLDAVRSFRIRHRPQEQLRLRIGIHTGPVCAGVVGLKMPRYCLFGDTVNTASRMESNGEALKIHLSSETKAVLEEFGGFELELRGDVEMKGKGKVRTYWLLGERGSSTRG

T2: human Natriuretic Peptide Receptor 1 (hNPR1) (human, UniProt P16066 33-473, limits assumed)
T2 construct: pannings used NPR1-hFc; also called NPR1-hFc
T2 sequence: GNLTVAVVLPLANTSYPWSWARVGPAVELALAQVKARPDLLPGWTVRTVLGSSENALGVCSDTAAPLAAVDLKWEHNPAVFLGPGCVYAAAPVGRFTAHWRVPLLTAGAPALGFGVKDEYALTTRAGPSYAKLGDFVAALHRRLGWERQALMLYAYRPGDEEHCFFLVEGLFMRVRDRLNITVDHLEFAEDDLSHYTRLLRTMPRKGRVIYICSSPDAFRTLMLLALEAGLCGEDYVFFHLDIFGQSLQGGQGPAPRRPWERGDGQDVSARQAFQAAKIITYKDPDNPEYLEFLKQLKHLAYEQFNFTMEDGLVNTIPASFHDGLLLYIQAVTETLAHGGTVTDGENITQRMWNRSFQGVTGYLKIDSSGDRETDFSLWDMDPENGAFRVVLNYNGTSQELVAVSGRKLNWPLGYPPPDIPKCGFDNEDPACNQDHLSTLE

T3: hNPR1-ANP complex (human, UniProt P01160 124-151, limits assumed)
T3 construct: hNPR1 antigen in the presence of ANP; also called hNPR1 + 100 nM ANP
T3 sequence: T2 sequence
T3 sequence (peptide): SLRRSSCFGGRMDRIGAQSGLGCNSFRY

T4: rat NPR1 (rNPR1) (rat, UniProt P18910 29-469, limits assumed)
T4 construct: Soluble antigen
T4 sequence: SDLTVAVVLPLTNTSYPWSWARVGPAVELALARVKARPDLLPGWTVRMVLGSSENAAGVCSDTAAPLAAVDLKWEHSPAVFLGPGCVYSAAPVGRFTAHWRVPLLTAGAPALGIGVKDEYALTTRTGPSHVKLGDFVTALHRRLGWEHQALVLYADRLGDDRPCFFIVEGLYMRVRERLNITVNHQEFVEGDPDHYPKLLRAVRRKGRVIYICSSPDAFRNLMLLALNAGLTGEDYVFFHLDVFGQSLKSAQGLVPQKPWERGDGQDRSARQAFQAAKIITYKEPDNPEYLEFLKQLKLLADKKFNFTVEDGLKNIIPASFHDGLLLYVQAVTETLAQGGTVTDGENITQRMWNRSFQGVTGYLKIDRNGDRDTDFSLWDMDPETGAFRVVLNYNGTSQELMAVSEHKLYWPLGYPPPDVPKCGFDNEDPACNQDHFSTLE

T5: rNPR1-ANP complex (rat, UniProt P01160 124-151 (human entry), limits assumed)
T5 construct: rNPR1 antigen in the presence of ANP; also called rNPR1 + 100 nM ANP
T5 sequence: T4 sequence
T5 sequence (peptide): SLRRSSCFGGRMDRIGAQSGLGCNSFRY

T6: human NPR2 on CHO cells (human, UniProt P20594 23-1047)
T6 sequence (looked up): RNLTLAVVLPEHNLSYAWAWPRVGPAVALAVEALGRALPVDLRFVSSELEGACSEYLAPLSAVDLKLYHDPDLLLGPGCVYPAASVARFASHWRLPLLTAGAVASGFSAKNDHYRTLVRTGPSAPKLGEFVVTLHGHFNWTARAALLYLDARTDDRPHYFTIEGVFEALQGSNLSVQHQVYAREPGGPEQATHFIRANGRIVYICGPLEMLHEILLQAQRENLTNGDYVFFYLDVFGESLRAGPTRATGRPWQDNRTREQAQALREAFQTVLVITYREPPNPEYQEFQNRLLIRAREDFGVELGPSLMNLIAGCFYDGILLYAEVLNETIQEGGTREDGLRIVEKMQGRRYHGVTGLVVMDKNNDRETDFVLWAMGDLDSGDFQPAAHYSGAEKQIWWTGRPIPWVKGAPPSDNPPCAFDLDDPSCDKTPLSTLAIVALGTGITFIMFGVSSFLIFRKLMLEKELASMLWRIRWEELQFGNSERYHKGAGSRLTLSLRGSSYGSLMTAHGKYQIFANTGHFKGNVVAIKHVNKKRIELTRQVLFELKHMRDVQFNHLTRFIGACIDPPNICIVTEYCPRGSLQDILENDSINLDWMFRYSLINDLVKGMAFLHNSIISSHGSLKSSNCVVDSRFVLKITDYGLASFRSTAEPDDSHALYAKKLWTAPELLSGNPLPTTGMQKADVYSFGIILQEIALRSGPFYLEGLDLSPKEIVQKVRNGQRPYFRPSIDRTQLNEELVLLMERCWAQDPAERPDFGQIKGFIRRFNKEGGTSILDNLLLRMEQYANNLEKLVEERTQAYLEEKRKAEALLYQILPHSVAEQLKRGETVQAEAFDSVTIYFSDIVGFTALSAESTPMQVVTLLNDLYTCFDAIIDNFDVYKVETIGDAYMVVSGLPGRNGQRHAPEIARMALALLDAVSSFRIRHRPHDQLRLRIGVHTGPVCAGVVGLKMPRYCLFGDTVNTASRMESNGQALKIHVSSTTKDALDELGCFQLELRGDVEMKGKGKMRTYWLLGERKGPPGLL

B1: WW06 (FabCys format) (Fab, V domains shown)
VH: QVQLVQSGAEVKKPGESLKISCKGSGYSFTSYWIAWVRQMPGKGLEWMGRIDPDNSYTRYSPSFQGQVTISADKSISTAYLQWSSLKASDTAMYYCARWLSPGYALGEQPAGMDHWGQGTLVTVSS
VL: DIVLTQPPSVSGAPGQRVTISCTGSSSNIGAGYAVHWYQQLPGTAPKLLIYSNNKRPSGVPDRFSGSKSGTSASLAITGLQAEDEADYYCQSYDLQKSSRVFGGGTKLTVL
B2: ZZ05 (FabCys format) (Fab, V domains shown)
VH: EVQLVQSGAEVKKPGESLKISCKGSGYSFTSYWISWVRQMPGKGLEWMGIIYPGTSYTRYSPSFQGQVTISADKSISTAYLQWSSLKASDTAMYYCARGSLPGLLGFDHWGQGTLVTVSS
VL: QSVLTQPPSVSGAPGQRVTISCTGSSSNIGAGYDVHWYQQLPGTAPKLLIYGNSNRPNGVPDRFSGSKSGTSASLAITGLQAEDEADYYCQSYGAFPRFVVFGGGTKLTVL
notes: Monovalent FabCys
B3: ZZ17 (FabCys format) (Fab, V domains shown)
VH: EVQLLESGGGLVQPGGSLRLSCAASGFTFSDYAISWVRQAPGKGLEWVSSISGGGYHTQYAGSVKGRFTISRDNSKNTLYLQMNSLRAEDTAVYYCARPYLGDRRSYGFDHWGQGTLVTVSS
VL: QSALTQPASVSGSPGQSITISCTGTSSDVGSYNLVSWYQQHPGKAPKLMIYEGSKRPSGVSNRFSGSKSGNTASLTISGLQAEDEADYYCSSYGFHIVVVVFGGGTKLTVL
notes: Monovalent FabCys
B4: XX16 (anti-NPR1 IgG) (antibody, V domains shown)
VH: EVQLLESGGGLVQPGGSLRLSCAASGFTFSSYWMNWVRQAPGKGLEWVSVIESKGNYIFYADSVKGRFTISRDNSKNTLYLQMNSLRAEDTAVYYCARDRYSMIYSYGAGAFDYWGQGTLVTVSS
VL: DIQMTQSPSSLSASVGDRVTITCRASQGISSYLAWYQQKPGKAPKLLIYTASTLQSGVPSRFSGSGSGTDFTLTISSLQPEDFATYYCQQTWRKPRTFGQGTKVEIK
B5: XX15 (IgG) (antibody, V domains shown)
VH: B4 VH
VL: B4 VL with T91E, R93V
B6: XX18 (IgG) (antibody, V domains shown)
VH: B4 VH
VL: B4 VL with T91E, R93A

Tests used:
[1] = molecular target: T1, human NPR1 on CHO-K1 cells; test: cell-based or functional assay
[2] = molecular target: T2, human Natriuretic Peptide Receptor 1 …; test: SET, FabCys
[3] = molecular target: T3, hNPR1-ANP complex; test: SET, FabCys
[4] = molecular target: T4, rat NPR1 (rNPR1); test: SET, FabCys
[5] = molecular target: T5, rNPR1-ANP complex; test: SET, FabCys
[6] = molecular target: T6, human NPR2 on CHO cells; test: cell-based or functional assay

cGMP generation EC50 [6] [nM]	cGMP generation Y max (% of ANP) [6]	also measured	Binder
		cGMP conc [nM] at 2 µM FabCys, +0.075 nM ANP [1]: 251 nM; cGMP conc [nM] at 2 µM FabCys, without ANP [1]: 281 nM	B1
		Kd [2]: 0.74 nM; Kd [3]: 1.2 nM	B2
		Kd [4]: 52 nM; Kd [5]: 36 nM	B3
> 500	< 1 % of ANP		B4
> 500	< 1 % of ANP		B5
> 500	< 1 % of ANP		B6
